Assay results as given in paper PMC6021111, “Murine leukemia virus p12 tethers the capsid-containing pre-integration complex to chromatin by binding directly to host nucleosomes in mitosis” (PLoS Pathogens, 2018).

Columns and labels:
[1] = tested on: hCBS soluble competitor peptide (prototypic foamy virus (PFV)); test: competition; conditions: scale: fold decrease of nucleosome binding to immobilised hCBS
[2] = biological target: C-terminally His-tagged N-MLV CA WT (N-tropic murine leukaemia virus (N-MLV)); test: co-sedimentation
[3] = biological target: partner chain of the complex shown [chain 1 S65A R66A L67A R68A G69A]; test: SILAC-MS of GST pull-down; conditions: mitotic 293T cell lysates
[4] = biological target: GST-tagged Mo-MLV p12_M63I with S61E (Moloney murine leukaemia virus (Mo-MLV)); test: pull-down
[5] = biological target: GST-tagged FeLV p12 I52M (feline leukaemia virus (FeLV)); test: pull-down
[6] = biological target: GST-tagged FeLV p12 A53V (feline leukaemia virus (FeLV)); test: pull-down
[7] = biological target: GST-tagged Mo-MLV p12_M63I with S61A (Moloney murine leukaemia virus (Mo-MLV)); test: pull-down
[8] = biological target: GST-tagged Mo-MLV p12_M63I with S61D (Moloney murine leukaemia virus (Mo-MLV)); test: pull-down
[9] = biological target: GST-tagged Mo-MLV p12_M63I (Moloney murine leukaemia virus (Mo-MLV)); test: pull-down

C-terminally His-tagged N-MLV CA WT (N-tropic murine leukaemia virus (N-MLV)), sequence (P03336 215-477 limits assumed): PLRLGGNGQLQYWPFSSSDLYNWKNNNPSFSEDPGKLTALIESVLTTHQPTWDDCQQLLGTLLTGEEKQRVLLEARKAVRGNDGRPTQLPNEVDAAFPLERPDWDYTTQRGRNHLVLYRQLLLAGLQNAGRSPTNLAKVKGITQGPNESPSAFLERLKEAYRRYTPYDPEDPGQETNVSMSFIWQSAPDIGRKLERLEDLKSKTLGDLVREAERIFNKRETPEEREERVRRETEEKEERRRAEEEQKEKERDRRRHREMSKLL
N-MLV p12_WT (purified, untagged) (natural protein), sequence (P03336 130-214 limits assumed): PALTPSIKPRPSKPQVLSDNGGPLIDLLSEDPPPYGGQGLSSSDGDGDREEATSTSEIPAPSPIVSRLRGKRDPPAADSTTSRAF

## recombinant H3.3 poly-nucleosomes
[1]
  binding signal: 10

## N-MLV p12_WT (purified, untagged) (natural protein)
[2]
  amount of p12 pelleted by the CA-nanotubes (67 pmol CA loaded): 11.2 pmol
  stoichiometry N (p12 per CA (1:6)): 0.167

## 
[3]; replicate R1
  screen value (SDs from the mean): 1.1
[3]; replicate R2
  screen value (SDs from the mean): 2.1

## histone H2B (from UniProt P62807 1-126) (natural protein)
[4]
  fold reduction in histone pull down against GST-p12 M63I: 1.5 fold
[5]
  fold difference in histone precipitation against the WT FeLV p12: < 2 fold
[6]
  fold difference in histone precipitation against the WT FeLV p12: < 2 fold
[7]
  fold reduction in histone pull down against GST-p12 M63I: 3 fold
[8]
  fold reduction in histone pull down against GST-p12 M63I: 6 fold
[9]
  fold more histones pulled down from mitotic than from interphase cell lysates: 4 fold
  fold reduction of H2B precipitation after kenpaullone: 3.5 fold
  fold reduction of H2B precipitation after roscovitine: 1.5 fold
